Measurements as given in patent US12460006B2, “Antibodies against integrin alpha 11 beta 1” (Momenta Pharmaceuticals, Inc., priority 2019, dated 2025).
Each block holds one molecule with its values, some of them ahead of it.

What was measured:
human α11β1 = human α11β1 (Homo sapiens, UniProt Q9UKX5); assay: ELISA binding to recombinant human α11β1; settings: binding Yes/No
Outline: (§1)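 Absorbance at 450 nm measured binding of serially diluted antibodies to immobilized α11β1 (human or mouse, coated at 0.25 μg/mL). Antibodies were incubated 1 h at room temperature, then detected with biotinylated anti-IgG, streptavidin-HRP and TMB substrate.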

mouse α11β1 = mouse α11β1 (Mus musculus, UniProt P61622); assay: ELISA binding to recombinant mouse α11β1; settings: binding Yes/No
Outline: as §1

α1β1, α2β1 and/or α10β1 = assay: Counter-screen for cross-reactivity to other collagen receptors; type: binding, human; settings: cross-reactivity to α1β1, α2β1, α10β1
Outline: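 Rat- and mouse-derived anti-α11β1 hybridoma supernatants or clones, first identified by ELISA against human and mouse α11β1, were counter-screened by ELISA against human α1β1, α2β1 and α10β1 to assess cross-reactivity to related collagen receptors.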

[1] = test system: CHO-K1 cells expressing human α11; assay: Cell adhesion inhibition (xCelligence), type I collagen; type: cell-based; settings: Yes/No
Outline: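 CHO-K1 cells expressing human α11 (0.6×10^6 cells/mL) were preincubated with mAbs across a concentration range for 20 min at 37° C, then seeded on wells coated with 100 ng/mL type I collagen and blocked with 3% BSA. Impedance-based adhesion was recorded over 6 h, and maximum adhesion was compared with untreated control.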

[2] = test system: Human Pulmonary Fibroblasts; assay: Fibroblast-to-Myofibroblasts Transition (FMT), αSMA expression; type: cell-based; settings: Yes/No
Outline: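 Cells seeded at 20,000/well, serum-starved 24 h, then given TGFβ-1 with or without anti-α11 antibodies for 48 h; polyclonal anti-α11 and isotype IgG served as controls. Fixed, permeabilized cells were stained for αSMA and analysed by flow cytometry (single-cell gMFI). Values are normalized to untreated control as % inhibition.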

human α11β1, sequence (Q9UKX5 23-1141 limits assumed): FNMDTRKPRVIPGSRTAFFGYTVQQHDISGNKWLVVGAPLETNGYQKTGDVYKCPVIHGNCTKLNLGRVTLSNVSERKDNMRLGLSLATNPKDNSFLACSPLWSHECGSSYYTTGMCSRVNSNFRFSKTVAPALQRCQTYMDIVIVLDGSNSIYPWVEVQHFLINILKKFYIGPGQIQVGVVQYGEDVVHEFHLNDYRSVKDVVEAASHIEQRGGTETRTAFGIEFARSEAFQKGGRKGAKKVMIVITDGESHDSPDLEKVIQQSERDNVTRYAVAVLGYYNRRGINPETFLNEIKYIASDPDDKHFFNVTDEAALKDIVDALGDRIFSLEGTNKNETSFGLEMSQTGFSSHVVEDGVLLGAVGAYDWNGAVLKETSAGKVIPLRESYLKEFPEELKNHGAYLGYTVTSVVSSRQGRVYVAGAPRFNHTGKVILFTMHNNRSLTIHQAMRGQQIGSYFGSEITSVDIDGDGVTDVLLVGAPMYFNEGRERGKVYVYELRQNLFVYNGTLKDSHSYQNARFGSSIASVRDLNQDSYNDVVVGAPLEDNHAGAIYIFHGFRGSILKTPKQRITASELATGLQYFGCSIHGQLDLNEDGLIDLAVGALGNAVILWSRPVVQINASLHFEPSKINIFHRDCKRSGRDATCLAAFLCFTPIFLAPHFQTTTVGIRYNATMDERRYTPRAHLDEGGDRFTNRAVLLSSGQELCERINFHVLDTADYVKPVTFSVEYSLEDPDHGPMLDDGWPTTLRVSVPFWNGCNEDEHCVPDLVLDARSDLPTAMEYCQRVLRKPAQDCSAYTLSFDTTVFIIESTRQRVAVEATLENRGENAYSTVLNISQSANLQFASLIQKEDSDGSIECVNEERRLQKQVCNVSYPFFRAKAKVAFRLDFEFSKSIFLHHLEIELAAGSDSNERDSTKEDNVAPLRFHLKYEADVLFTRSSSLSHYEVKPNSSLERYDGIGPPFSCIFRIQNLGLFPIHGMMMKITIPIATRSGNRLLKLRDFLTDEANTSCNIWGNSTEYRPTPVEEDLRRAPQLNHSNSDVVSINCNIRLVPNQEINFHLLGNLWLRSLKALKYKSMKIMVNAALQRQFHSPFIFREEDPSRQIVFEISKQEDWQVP
human α11β1, sequence (P05556 21-728 partner limits assumed): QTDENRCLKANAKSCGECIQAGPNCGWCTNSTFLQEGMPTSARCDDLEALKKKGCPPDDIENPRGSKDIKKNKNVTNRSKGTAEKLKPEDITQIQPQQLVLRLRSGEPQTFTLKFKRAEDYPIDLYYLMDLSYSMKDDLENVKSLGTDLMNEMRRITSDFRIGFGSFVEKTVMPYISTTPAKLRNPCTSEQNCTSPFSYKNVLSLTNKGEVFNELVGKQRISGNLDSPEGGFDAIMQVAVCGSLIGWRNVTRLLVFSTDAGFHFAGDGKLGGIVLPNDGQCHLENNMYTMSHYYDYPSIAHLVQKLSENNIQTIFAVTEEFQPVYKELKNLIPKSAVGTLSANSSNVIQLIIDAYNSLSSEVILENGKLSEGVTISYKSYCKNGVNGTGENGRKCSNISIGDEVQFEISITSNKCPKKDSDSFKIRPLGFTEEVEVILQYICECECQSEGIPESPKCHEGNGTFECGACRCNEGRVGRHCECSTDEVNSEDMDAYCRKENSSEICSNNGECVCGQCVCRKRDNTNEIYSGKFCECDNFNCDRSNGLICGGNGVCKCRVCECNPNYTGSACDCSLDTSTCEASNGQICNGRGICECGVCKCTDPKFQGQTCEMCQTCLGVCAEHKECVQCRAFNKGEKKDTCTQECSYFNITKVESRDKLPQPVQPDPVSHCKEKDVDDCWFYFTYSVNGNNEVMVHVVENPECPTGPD
mouse α11β1, sequence (P61622 23-1141 limits assumed): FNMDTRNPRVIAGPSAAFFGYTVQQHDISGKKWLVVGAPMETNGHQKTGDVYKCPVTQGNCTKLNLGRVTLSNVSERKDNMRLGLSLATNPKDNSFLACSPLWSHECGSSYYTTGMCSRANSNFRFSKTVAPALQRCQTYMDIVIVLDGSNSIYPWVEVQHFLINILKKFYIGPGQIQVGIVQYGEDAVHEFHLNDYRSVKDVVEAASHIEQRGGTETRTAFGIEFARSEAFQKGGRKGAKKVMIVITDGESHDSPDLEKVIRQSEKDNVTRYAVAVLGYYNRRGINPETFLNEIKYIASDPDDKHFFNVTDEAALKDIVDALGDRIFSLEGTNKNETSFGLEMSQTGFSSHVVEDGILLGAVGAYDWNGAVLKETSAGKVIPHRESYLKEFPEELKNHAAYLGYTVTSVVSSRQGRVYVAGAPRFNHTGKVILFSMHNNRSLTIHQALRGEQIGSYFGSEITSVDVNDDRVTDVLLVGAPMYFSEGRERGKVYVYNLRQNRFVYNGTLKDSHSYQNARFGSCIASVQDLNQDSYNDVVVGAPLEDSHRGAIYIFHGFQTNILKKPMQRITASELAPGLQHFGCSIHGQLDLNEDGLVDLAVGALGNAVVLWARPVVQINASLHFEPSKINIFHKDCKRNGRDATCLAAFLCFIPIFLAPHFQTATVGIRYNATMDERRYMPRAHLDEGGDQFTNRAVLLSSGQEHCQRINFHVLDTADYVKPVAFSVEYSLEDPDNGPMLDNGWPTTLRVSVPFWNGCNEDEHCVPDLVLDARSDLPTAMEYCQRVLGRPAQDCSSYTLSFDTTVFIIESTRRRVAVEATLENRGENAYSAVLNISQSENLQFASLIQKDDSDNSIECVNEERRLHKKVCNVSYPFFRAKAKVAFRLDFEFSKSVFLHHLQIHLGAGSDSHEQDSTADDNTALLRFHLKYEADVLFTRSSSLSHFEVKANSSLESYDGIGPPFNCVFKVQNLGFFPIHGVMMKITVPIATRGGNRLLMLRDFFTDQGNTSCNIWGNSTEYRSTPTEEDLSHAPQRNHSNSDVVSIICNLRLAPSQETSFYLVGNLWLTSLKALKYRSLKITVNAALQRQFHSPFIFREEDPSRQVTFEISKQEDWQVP
mouse α11β1, sequence (P09055 21-728 partner limits assumed): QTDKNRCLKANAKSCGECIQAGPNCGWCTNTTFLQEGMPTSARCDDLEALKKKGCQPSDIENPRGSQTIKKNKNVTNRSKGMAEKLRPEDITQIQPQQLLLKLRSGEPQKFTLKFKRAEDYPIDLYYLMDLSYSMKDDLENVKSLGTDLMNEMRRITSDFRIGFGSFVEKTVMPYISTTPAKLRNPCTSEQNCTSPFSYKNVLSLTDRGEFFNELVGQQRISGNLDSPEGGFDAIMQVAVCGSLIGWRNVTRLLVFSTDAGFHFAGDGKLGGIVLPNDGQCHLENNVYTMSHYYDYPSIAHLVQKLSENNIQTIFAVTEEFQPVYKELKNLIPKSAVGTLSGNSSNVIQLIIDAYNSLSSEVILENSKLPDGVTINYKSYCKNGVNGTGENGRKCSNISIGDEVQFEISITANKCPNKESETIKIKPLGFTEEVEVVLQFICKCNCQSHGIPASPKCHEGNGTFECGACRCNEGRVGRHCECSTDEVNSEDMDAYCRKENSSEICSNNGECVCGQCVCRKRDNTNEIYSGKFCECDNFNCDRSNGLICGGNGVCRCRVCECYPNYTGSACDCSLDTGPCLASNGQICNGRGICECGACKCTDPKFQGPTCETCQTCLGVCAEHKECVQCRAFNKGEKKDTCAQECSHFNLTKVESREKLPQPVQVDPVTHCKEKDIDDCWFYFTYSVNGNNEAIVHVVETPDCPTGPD

Human α11β1 ELISA (human α11β1): Yes | Murine α11β1 ELISA (mouse α11β1): Yes/Low | Off Target (α1β1, α2β1 and/or α10β1): No
B2: 7-H14: mouse anti-α11β1 mAb; VH SEQ ID NO: 121, VL SEQ ID NO: 122 (antibody, V domains shown)
VH: QVQLQQPGAELVRPGASVKLSCKPSGYTFTSYWMNWVKQRPGQGLEWIGMIDPSDSETHYNQMFKDKATLTVDKSSNTAYMQLSSLTSEDSAVYYCAQIYYAYDKAYWGQGTLVTVSA
VL: DIVMSQSPSSLAVSVGEKVTMSCKSSQSLLYSSHQKNYLAWYQQKPGQSPKLLIYWASTRESGVPDRFTGSGSGTDFSLTISSVKAEDLAVYYCQEYYSWTFGGGTKLEIK
Inhibition of CHO-K1 adhesion to collagen [1]: No | Inhibition of FMT [2]: No

Human α11β1 ELISA (human α11β1): Yes | Murine α11β1 ELISA (mouse α11β1): No | Off Target (α1β1, α2β1 and/or α10β1): No
B3: 18E10F10: rat anti-α11β1 mAb; VH SEQ ID NO: 155, VL SEQ ID NO: 156 (antibody, V domains shown)
VH: MDIRLSLVFLVLFMKGVQCEVQLVESGGGLVQPGRSLKLSCAASRFTFSDYNMAWVRQAPKKGLEWVATIYHDDSGSYYRDSVKGRFTISRNNAKSTLYLQMDSLRSEDMATYYCARHNNGFDYWGQGVMVTVAS
VL: MKWPVRLLVLFFWIPASGGDVVMTQTPVSLPVRLGGQASISCRSSQSLVHSNGNTYLHWYLQKPGQSPQLLINRVSNRFSGVPDRFSGSGSGTDFTLKINRVEPEDLGDYYCLQSTHFPLTFGSGTKLETK
Inhibition of CHO-K1 adhesion to collagen [1]: Yes | Inhibition of FMT [2]: Yes

Human α11β1 ELISA (human α11β1): Yes | Murine α11β1 ELISA (mouse α11β1): No | Off Target (α1β1, α2β1 and/or α10β1): No
B5: 6-M8: mouse anti-α11β1 mAb; VH SEQ ID NO: 129, VL SEQ ID NO: 130 (antibody, V domains shown)
VH: QVQLQQPGAELVMPGASVKLSCKASGYTFTNYWMHWVKQRPGQGLEWIGEIDPSDSYTNYNQKFKGKATLTVDKSSSTAYMQLSSLTSEDSAVYYCTRQGSTYAWGQGTSVTVSS
VL: DIVMTQAAFSNPVTLGTSASISCRSSKSLLHSNGITYLYWYLQKPGQSPQLLIYQMSNLASGVPDRFSSSGSGTDFTLRISRVEAEDVGVYYCAQNLELPPTFGGGTKLEIK
Inhibition of CHO-K1 adhesion to collagen [1]: No | Inhibition of FMT [2]: No

More lines, now with the values behind:

B1: 7D8B10: rat anti-α11β1 mAb; VH SEQ ID NO: 153, VL SEQ ID NO: 154 (antibody, V domains shown)
VH: MDLRLTYVFIVAILKGVLCEVKLEESGGGLVQPGMSVKLSCATSGFIFSDYWMEWVRQAPGKGLEWVAEIRNKANNYATYYGKSMKGRFTISRDDSKSIVYLQVNSIRSEDTAIYYCAPNFDYWGQGVMVTVSS
VL: MSPVQSLFLLLLWILGTHGDVVLTQTPPTLSATIGQSVSISCRSSQSLLHSTGNTYLNWLLQRPGQPPQLLIYLVSRLESGVPNRFSASGSGTDFTLKISGIEAEDLGVYYCVQSSHTPYTFGTGTKLELK
Human α11β1 ELISA (human α11β1): Yes | Murine α11β1 ELISA (mouse α11β1): No | Off Target (α1β1, α2β1 and/or α10β1): No | Inhibition of CHO-K1 adhesion to collagen [1]: No | Inhibition of FMT [2]: Yes

B4: 9-B11: mouse anti-α11β1 mAb; VH SEQ ID NO: 115, VL SEQ ID NO: 116 (antibody, V domains shown)
VH: QVQLQQPGAELVRPGTSVKLSCKASGYTFTSYWMHWVQQRPGQGLEWIGVIDPSDSYTNYNQKFKGKATLTVDTSSSSAYMQLSSLTSEDSAVYYCARDDVAMDYWGQGTSVTVSS
VL: DIVVTQSPASLAVSLGQRATISCRASESVDSYGNSFIHWYQQKPGQPPKLLIYRASNLKSGIPARFSGSGSRTDFTLTINPVEADDVATYYCQQSNEDPYTFGGGTKLEIK
Human α11β1 ELISA (human α11β1): Yes | Murine α11β1 ELISA (mouse α11β1): No | Off Target (α1β1, α2β1 and/or α10β1): No | Inhibition of CHO-K1 adhesion to collagen [1]: Yes | Inhibition of FMT [2]: Yes
